From patent KR20160093503A (dated 2016)

What was measured:
[1] = molecular target: T1, WRS (Tryptophanyl-tRNA synthetase), purified recombinant (UniProt P23381 1-471, limits assumed); test: Luminex multiplex bead assay, antigen coupled to beads, relative to CRS
T1 construct: also called 트립토파닐-tRNA 합성효소
T1 sequence (looked up): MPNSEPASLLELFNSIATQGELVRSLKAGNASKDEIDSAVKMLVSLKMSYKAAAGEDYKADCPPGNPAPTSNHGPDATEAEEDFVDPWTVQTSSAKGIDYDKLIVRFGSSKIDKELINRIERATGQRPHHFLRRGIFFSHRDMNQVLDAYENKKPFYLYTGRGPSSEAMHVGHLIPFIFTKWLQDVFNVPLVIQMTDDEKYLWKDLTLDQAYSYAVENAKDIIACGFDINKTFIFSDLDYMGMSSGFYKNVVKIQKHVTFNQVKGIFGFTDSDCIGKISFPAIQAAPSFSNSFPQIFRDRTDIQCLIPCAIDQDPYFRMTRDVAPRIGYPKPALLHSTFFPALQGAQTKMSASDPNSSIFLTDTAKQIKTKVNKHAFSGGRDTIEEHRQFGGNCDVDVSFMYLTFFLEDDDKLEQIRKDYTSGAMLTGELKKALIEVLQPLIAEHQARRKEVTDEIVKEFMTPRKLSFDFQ

[2] = molecular target: T2, EPRS WHEP domain (Glutamyl-prolyl tRNA synthetase), purified recombinant (UniProt P07814 749-956, limits assumed); test: as above
T2 construct: domain: WHEP domain; also called 글루타밀-프로릴-tRNA 합성효소
T2 sequence (looked up): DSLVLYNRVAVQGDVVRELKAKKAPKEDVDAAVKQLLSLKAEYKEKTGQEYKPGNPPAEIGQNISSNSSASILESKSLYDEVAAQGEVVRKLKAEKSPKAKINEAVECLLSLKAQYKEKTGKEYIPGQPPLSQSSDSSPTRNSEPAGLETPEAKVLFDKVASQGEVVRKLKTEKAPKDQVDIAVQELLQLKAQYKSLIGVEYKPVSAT

[3] = molecular target: T3, AIMP1 (Aminoacyl-tRNA-synthetase-interacting multifunctional protein 1), purified recombinant (UniProt Q12904 1-312, limits assumed); test: as above
T3 construct: also called AIMP1(p43); p43
T3 sequence (looked up): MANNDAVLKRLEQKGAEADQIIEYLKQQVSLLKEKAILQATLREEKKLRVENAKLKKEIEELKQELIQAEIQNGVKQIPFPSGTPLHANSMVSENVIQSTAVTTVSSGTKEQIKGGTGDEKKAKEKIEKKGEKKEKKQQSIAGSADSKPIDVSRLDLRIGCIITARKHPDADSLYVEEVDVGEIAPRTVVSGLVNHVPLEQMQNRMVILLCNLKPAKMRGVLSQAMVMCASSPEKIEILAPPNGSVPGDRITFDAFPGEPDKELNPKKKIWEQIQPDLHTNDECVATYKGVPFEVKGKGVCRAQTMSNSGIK

[4] = molecular target: T4, DRS (Aspartyl-tRNA synthetase), purified recombinant (UniProt P14868 1-501, limits assumed); test: as above
T4 construct: also called 아스파틸-tRNA 합성효소
T4 sequence (looked up): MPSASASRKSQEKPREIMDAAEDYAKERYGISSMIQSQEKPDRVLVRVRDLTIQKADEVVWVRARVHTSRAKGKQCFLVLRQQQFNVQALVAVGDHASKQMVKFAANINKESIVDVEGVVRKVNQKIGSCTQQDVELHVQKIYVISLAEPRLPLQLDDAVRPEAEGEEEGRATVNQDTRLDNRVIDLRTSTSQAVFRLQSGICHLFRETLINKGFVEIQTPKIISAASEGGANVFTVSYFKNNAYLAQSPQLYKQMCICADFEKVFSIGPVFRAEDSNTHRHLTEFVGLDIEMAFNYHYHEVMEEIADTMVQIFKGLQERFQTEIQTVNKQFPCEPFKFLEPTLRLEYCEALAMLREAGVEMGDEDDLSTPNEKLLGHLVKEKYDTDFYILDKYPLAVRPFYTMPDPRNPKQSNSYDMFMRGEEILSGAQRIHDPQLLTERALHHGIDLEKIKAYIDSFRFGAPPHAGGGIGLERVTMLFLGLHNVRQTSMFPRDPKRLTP

[5] = molecular target: T5, AIMP3 (Aminoacyl-tRNA-synthetase-interacting multifunctional protein 3), purified recombinant (UniProt O43324 1-174, limits assumed); test: as above
T5 construct: also called AIMP3(p18); p18
T5 sequence (looked up): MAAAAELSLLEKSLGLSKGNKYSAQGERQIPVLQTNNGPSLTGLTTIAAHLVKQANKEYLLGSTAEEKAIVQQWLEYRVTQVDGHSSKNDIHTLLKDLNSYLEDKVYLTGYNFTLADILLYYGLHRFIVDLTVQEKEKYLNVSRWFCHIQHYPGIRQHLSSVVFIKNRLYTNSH

[6] = molecular target: T6, HRS (Histidyl-tRNA synthetase), purified recombinant (UniProt P12081 1-509, limits assumed); test: as above
T6 construct: also called 히스티딜-tRNA 합성효소
T6 sequence (looked up): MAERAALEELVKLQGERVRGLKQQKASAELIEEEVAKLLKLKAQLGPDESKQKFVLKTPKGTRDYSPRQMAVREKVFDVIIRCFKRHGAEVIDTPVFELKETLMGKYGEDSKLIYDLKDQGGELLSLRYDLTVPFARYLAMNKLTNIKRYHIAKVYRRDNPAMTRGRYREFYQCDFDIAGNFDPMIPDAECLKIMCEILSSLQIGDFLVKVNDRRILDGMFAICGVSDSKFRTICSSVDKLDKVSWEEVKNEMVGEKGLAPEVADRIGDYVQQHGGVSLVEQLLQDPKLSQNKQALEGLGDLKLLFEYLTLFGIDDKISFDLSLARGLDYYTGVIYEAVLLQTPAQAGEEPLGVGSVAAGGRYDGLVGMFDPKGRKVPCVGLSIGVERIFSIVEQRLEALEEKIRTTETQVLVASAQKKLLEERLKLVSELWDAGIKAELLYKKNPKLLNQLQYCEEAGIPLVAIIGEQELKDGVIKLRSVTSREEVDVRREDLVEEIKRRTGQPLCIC

[7] = molecular target: T7, CRS (Cysteinyl-tRNA synthetase), purified recombinant antigen (human, UniProt P49589 1-748, limits assumed); test: SPR (ProteOn XPR36), CRS amine-coupled on GLC chip, scFv 500-30 nM as analyte, 25 C
T7 construct: also called CRS 항원; 재조합 CRS 표준물질
T7 sequence (looked up): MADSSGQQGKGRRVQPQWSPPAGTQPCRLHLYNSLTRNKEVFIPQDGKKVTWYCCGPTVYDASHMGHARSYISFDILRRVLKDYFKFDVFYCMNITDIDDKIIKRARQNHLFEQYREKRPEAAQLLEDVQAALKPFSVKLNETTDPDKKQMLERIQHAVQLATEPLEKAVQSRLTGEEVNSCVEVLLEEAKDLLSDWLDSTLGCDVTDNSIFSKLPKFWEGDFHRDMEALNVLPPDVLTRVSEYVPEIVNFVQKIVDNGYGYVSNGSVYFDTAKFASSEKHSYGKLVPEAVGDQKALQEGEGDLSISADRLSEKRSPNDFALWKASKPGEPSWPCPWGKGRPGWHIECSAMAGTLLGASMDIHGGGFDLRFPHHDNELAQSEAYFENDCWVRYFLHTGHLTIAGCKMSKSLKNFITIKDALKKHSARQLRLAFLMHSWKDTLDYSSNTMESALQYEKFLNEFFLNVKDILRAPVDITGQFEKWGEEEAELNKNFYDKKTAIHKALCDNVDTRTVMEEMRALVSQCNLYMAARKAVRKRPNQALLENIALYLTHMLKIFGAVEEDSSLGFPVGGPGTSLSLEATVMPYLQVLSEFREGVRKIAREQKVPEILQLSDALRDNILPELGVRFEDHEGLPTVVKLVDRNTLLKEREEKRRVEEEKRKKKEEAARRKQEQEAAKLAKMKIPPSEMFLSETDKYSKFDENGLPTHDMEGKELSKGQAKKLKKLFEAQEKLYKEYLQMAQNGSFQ

B1: anti-CRS scFv Biocon-K1 (scFv)
scFv: EVQLLESGGGLVQPVGSLRLSCAASGFTFSNYAMSWVRQAPGKGLEWVSWIYSKGRSTYYGDSAKGRFTISRDNSKNTLYLQMNSLRAEDTAVYYCAKRDNAFDYWGQGTLVTVSSGGGGSGGGGSGGGGSQSVLTQPPSASGTPGQRVTISCSGSSSNIGNNYVYWYQQLPGTAPKLLIYADSQRPSGVPDRFSGSKSGTSASLAISGLRSEDEADYYCGAWDSSLNGYVFGGGTKLTVL
notes: It was expressed from pComb3X in the E. coli periplasm, purified on Ni-NTA and detected with anti-HA; Human VH3-23/VL1g framework; also called 항 CRS scFv 항체; 본 발명의 항체
- 교차 반응성 (cross-reactivity) [1]: ≤ 10%
- 교차 반응성 (cross-reactivity) [2]: ≤ 10%
- 교차 반응성 (cross-reactivity) [3]: ≤ 10%
- 교차 반응성 (cross-reactivity) [4]: ≤ 10%
- 교차 반응성 (cross-reactivity) [5]: ≤ 10%
- 교차 반응성 (cross-reactivity) [6]: ≤ 10%
- Kd [7]: 60 nM
